Experimental data: patent publication US20190111148A1 (MONASH UNIVERSITY, published 2019)

B1: monoclonal antibody 2P2 (antibody, V domains shown)
VH: EVQLQQSGADLVRSGASVKLSCTASGFNIKDYYIHWVKQRPEQGLELIGWIDPESGDTEYAPKFQVKATMTADTSSNTAYLQLSSLTSEDTAVYYCNDGSGYWGQGTTLTVSS
VL: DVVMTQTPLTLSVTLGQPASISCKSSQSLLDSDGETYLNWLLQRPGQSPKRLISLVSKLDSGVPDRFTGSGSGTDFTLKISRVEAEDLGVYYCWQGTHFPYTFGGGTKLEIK
notes: Mouse monoclonal antibody; it was detected with anti-mouse IgG in ELISA; also called mAb 2P2; m2P2
B2: humanized 2P2 antibody (antibody, V domains shown)
VH: QVQLVQSGAEVKKPGASVKVSCKASGFNIKDYYIHWVRQAPGQGLELIGWIDPESGDTNYAQKFQVKATMTRDTSISTAYMELSRLRSDDTAVYYCNDGSGYWGQGTTVTVSS
VL: DVVMTQSPLSLPVTLGQPASISCKSSQSLLDSDGETYLNWLQQRPGQSPRRLISLVSKLDSGVPDRFSGSGSGTDFTLKISRVEAEDVGVYYCWQGTHFPYTFGQGTKLEIK
notes: it was detected with anti-human IgG in ELISA; also called h2P2; humanised 2P2

Tests used:
Peptide 5 of hIL-21 = molecular target: T1, Peptide 5 of hIL-21 (human); test: ELISA, biotinylated 2P2 on coated peptide
T1 construct: also called P5
T1 peptide: PPSTNAGRRQKHRLT
Experimental: (§1) To detect epitopes of 2P2 and 3A3, peptides consisting of different regions of hIL-21 were synthesized commercially and coated on an ELISA plate, followed by blocking of non-specific binding sites with 3% BSA in PBS. Biotinylated 2P2 or 3A3 were then added to the wells and developed with Streptavidin-HRP and TMB substrates.

Peptide 4 of hIL-21 = molecular target: T2, Peptide 4 of hIL-21 (human); test: ELISA, biotinylated 2P2 on coated peptide
T2 construct: also called P4
T2 peptide: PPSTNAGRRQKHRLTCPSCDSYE
Experimental: as §1

Peptide 3 of hIL-21 = molecular target: T3, Peptide 3 of hIL-21 (human); test: ELISA: coated Peptide 3, biotinylated 2P2, Streptavidin-HRP/TMB, A450
T3 construct: also called P3
T3 peptide: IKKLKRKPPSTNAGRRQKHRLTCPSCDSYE
Experimental: as §1

human IL-21 [1] = molecular target: T4, human IL-21 (human, UniProt Q9HBE4 25-162, limits assumed); test: cell-based or functional assay
mIL21 = mIL21 (mouse, UniProt Q9ES17); test: ELISA: coated mIL21, biotinylated 2P2, Streptavidin-HRP/TMB, A450
Peptide 2 (P2) = molecular target: T5, Peptide 2 (P2); test: peptide ELISA: coated peptide, biotinylated 2P2, Streptavidin-HRP/TMB, A450
T5 construct: also called peptide 2 of hIL-21; Peptide 2 (P2, 27aa)
Experimental: as §1

Peptide 1 (P1, 30aa) = molecular target: T6, Peptide 1 (P1, 30aa); test: as above
T6 construct: also called peptide 1 of hIL-21
Experimental: as §1

human IL-21 [2] = molecular target: T4, human IL-21; test: SPR (ProtOn XPR36), biotinylated hIL21 immobilised on NLC chip, antibody in flow, triplicates
Experimental: Triplicates SPR measurements were conducted on ProtOn XPR36 (Bio-rad). NLC chips (Bio-rad) were used to immobilise biotinylated hIL21 on ligand channels, followed by flowing through of various concentrations of mouse 2P2 or humanised 2P2.

human IL-21 [3] = molecular target: T4, human IL-21; test: SPR, immobilised mAb, IL-21 in flow; average of the five wells of Table 6 (unit from Table 6); average with range and SD of the five measurements
Experimental: Surface Plasma Resonance binding kinetics assay were performed on a Bio-rad XPR36 system by the direct amine coupling method. Briefly, a flow of mixture of EDC [N-ethyl-N′-(3-diethylamino-propyl) carbodiimide] and NHS (N-hydroxysuccinimide) was used to activate the cell surface of a GLC sensor chip before 25 μg/ml anti-IL-21 mAb was flowed through, then a shot flow of ethanolamine was used to block the remaining active sites on the cell surface. Afterwards, serial diluted solutions of IL-21 from 0 to 40 nM were flown over the cell surface to bind to the immobilized anti-IL-21 mAb molecules. Binding kinetics were performed at 25° C. with a flow rate of 30 μL/min, association time of 3 min and dissociation time of 6 min. The buffer consisted of Hepes, NaCl, tween20, and 1 mg/mL BSA at pH 7.4. The flow cell regeneration buffer between cycles was 15 mM phosphoric acid. Double references were used to process the sensorgrams. The binding curves were globally fit to the 1:1 Langmuir binding model.

T4 sequence (Q9HBE4 25-162 limits assumed): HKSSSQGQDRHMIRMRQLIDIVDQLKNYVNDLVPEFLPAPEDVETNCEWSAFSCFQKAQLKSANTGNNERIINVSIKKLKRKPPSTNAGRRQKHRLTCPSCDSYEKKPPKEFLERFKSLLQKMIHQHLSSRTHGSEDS
T5 sequence (peptide, as listed by the source): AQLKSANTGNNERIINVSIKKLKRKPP
T6 sequence (peptide, as listed by the source): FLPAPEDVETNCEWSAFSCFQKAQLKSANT

Row | Binder | binding result (Peptide 5 of hIL-21) | binding result (Peptide 4 of hIL-21) | binding result (Peptide 3 of hIL-21) | bioactivity of human IL-21 (proliferation of Ba/F3-hIL-21 R cells, [3H]-thymidine incorporation) (human IL-21 [1]) [fold] | hIL-21 mediated human B cell proliferation (CFSE dilution, flow cytometry) (human IL-21 [1]) [fold] | hIL-21 mediated human CD8 T cell activation (granzyme B/perforin double positive cells) (human IL-21 [1]) [fold] | binding result (mIL21) | binding result (Peptide 2 (P2)) | binding result (Peptide 1 (P1, 30aa)) | Kd (human IL-21 [2]) [nM] | koff (human IL-21 [2]) [s⁻¹] | Kd (human IL-21 [3]) [nM]
1 | B1 | binds | binds | binds | > 10 | ~20 | > 10 | no binding | no binding | no binding | 0.0201 | 0.000512 | 3.33
2 | B2 | – | – | – | – | – | – | – | – | – | 0.0305 | 0.00037 | –
